Test results as given in the supplement of paper PMC10567573.
± gives the standard deviation.

Assay: protein stability index of a GFP-peptide fusion (GPS, HEK-293T) (PSI 1-6); higher = more stable
[1] = treatment: DMSO, c terminus: a fixed tail appended
[2] = treatment: MLN4924 1 uM, 8 h, c terminus: a fixed tail appended
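Also: 24-mer peptide tiles fused after GFP, lentivirally expressed, FACS-sorted into six equal bins by GFP/DsRed ratio, decoded by Illumina sequencing, PSI is the read-weighted mean bin number.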

MMSLTKLADKELVHMISWAKKIPG [ESR2]
protein stability index [1]: 2.17 ± 0.19
protein stability index [2]: 2.16 ± 0.12

MNRSIPVEVDESEPYPSQLLKPIP [TRAF3IP2]
protein stability index [1]: 4.44 ± 0.19
protein stability index [2]: 4.45 ± 0.34

MNYRRLGGGVGVIKMTHCESHIW [KLHL20]
protein stability index (treatment: DMSO, c terminus: native): 2.75 ± 0.32
protein stability index (treatment: MLN4924 1 uM, 8 h, c terminus: native): 2.34 ± 0.31

MPDYMILQELKKLKNSNYESIQQT [PPTC7]
protein stability index [1]: 2.5 ± 0.41
protein stability index [2]: 2.93 ± 0.39

MPRAPKRQRCMPEEDLQSQSETQG [MAGEA10]
protein stability index [1]: 5.02 ± 0.42
protein stability index [2]: 5.05 ± 0.12

MQVDKKRVYLATDDPSLLKEAKTK [FUT8]
protein stability index [1]: 4.06 ± 0.21
protein stability index [2]: 3.92 ± 0.32

MQVNPISKRMGPMTVVRMDASVQP [RHOBTB1]
protein stability index [1]: 3.48 ± 0.19
protein stability index [2]: 3.43 ± 0.2

MRQRISRVEESALRALREKLFAHS [PPEF2]
protein stability index [1]: 2.72 ± 0.24
protein stability index [2]: 2.71 ± 0.33

MSDKYHDSDEATAARLLFNMAGVT [DCTD]
protein stability index [1]: 3.53 ± 0.25
protein stability index [2]: 3.54 ± 0.36

MSPSLQEGAQLGENKPSTCSFSIE [HESX1]
protein stability index [1]: 4.95 ± 0.3
protein stability index [2]: 5.07 ± 0.18

MSTGPIAESWCYTQVKVVKFSYMW [SPOPL]
protein stability index [1]: 2.41 ± 0.08
protein stability index [2]: 3.35 ± 1.5

MSTIGSFEGFQAVSLKQEGDDQPS [TPRG1]
protein stability index [1]: 5.22 ± 0.082
protein stability index [2]: 5.22 ± 0.078

MTRNDVLTGLQLKLGPALKIYEYH [SAMD13]
protein stability index [1]: 2.24 ± 0.42
protein stability index [2]: 2.22 ± 0.3

MTTALQGQRLAVCVPAHPPPCAWA [CTBP1-DT]
protein stability index [1]: 2.43 ± 0.2
protein stability index [2]: 2.56 ± 0.14

MVEADRPGKLFIGGLNTETNEKAL [RBMX]
protein stability index [1]: 4.75 ± 0.096
protein stability index [2]: 4.39 ± 0.48

MVGLILGPFGVNHGVELHSDVIEY [PCMTD2]
protein stability index [1]: 3 ± 1.1
protein stability index [2]: 2.82 ± 0.64

MVLLIMKLDQLDQDIENALSTSSS [DLC1]
protein stability index [1]: 2.69 ± 0.58
protein stability index [2]: 2.49 ± 0.45

MVSNPVHGLPFLPGTSFKDSTKTA [EFHC1]
protein stability index [1]: 3.87 ± 0.24
protein stability index [2]: 3.97 ± 0.25

MWDSKKIGLRQHHCRKCGKAVCGK [WDFY2]
protein stability index [1]: 3.31 ± 0.15
protein stability index [2]: 3.58 ± 0.72

MYTPAYGDFDFDEVKFPNASDMFR [MYORG]
protein stability index [1]: 3.1 ± 0.3
protein stability index [2]: 3.16 ± 0.26

NAANRTGYVPSNYVERKNSLKKGS [NCK2]
protein stability index [1]: 4.33 ± 0.3
protein stability index [2]: 4.45 ± 0.18

NADGSYLCQCHEGFALNPDKKTCT [MATN2]
protein stability index [1]: 4.06 ± 0.14
protein stability index [2]: 4.2 ± 0.29

NAKKLSMYGVDLHHAKDSEGVEIM [EPB41L3]
protein stability index [1]: 3.66 ± 0.8
protein stability index [2]: 3.61 ± 0.72

NDAYGPPSNFLEIDVSNPQTVGVG [SNX3]
protein stability index [1]: 4.68 ± 0.35
protein stability index [2]: 4.59 ± 0.08

NEEETPSCMASLWTAPLVMRTTNL [CDC25A]
protein stability index [1]: 3.22 ± 0.18
protein stability index [2]: 3.3 ± 0.11

NEVLSSDILPRWAIIGWLLTTCTS [INTS3]
protein stability index [1]: 2.99 ± 0.82
protein stability index [2]: 2.91 ± 0.49

NFGEFKCSDSDKKCHLWTAMDLGF [CLCN6]
protein stability index [1]: 2.19 ± 0.32
protein stability index [2]: 2.34 ± 0.46

NGDGAFLHDNHEQMPTEIEFPESR [ZNF649]
protein stability index [1]: 5.31 ± 0.36
protein stability index [2]: 5.19 ± 0.45

NGNRRRRKLRKTVNGDGSRENGNN [PHTF1]
protein stability index [1]: 4.93 ± 0.43
protein stability index [2]: 5.12 ± 0.19

NGVLGLSRLLFFLLGFLRIRVRGQ [LPCAT4]
protein stability index [1]: 2.2 ± 0.34
protein stability index [2]: 2.44 ± 0.25

NHDIRTANDGDYWRLLNPGEYVVT [CPXM2]
protein stability index [1]: 2.96 ± 0.21
protein stability index [2]: 3.25 ± 0.31

NHEALRQAKQEMNESRRQIQSLTC [PRPH]
protein stability index [1]: 4.47 ± 0.18
protein stability index [2]: 4.38 ± 0.15

NHEIMPGGSVNITCVAVGSPMPYV [PTPRD]
protein stability index [1]: 2.15 ± 0.8
protein stability index [2]: 2.28 ± 0.16

NHEQEVNTLRCQLGDRLNVEVDAA [KRT33B]
protein stability index [1]: 4.94 ± 0.11
protein stability index [2]: 5.16 ± 0.22

NHLPPQTKRSSRNPVFQDSWDTES [FAM104A]
protein stability index [1]: 4.48 ± 0.29
protein stability index [2]: 4.59 ± 0.46

NIMTQNVERILARGENLEHLRNKT [VAMP8]
protein stability index [1]: 3.46 ± 0.29
protein stability index [2]: 3.93 ± 0.068

NISELKRTFLETSTDTAVTNEWEK [EPB41L3]
protein stability index [1]: 4.82 ± 0.25
protein stability index [2]: 4.686 ± 0.034

NLENPMRRIHSLPQKLLGCSPALK [CDC25A]
protein stability index [1]: 2.64 ± 0.23
protein stability index [2]: 3.11 ± 0.32

NLTSPASITFTTGLEAPRDLEAKE [TNXB]
protein stability index [1]: 5.21 ± 0.51
protein stability index [2]: 5.51 ± 0.36

NLVAGCLQLNARSFMMGQGGEAAH [NEUROD6]
protein stability index [1]: 2.34 ± 0.22
protein stability index [2]: 2.02 ± 0.11

NNEIPDCYTFSVLITFDNKAHSGR [MCOLN1]
protein stability index [1]: 2.34 ± 0.31
protein stability index [2]: 2.42 ± 0.53

NNKYSYTSNSDDNMLKNIELFDKL [KCTD10]
protein stability index [1]: 3.9 ± 0.068
protein stability index [2]: 3.9 ± 0.26

NNQYSEGVQREAQRIALRLGNGND [KMT2E]
protein stability index [1]: 4.51 ± 0.24
protein stability index [2]: 4.63 ± 0.18

NNSIKDLTDGHFENILADNSVNDQ [SERPINB5]
protein stability index [1]: 5.32 ± 0.12
protein stability index [2]: 5.26 ± 0.25

NQIMPKAGLLIIVLAIIAREGDCA [MAGEA3]
protein stability index [1]: 3.02 ± 0.55
protein stability index [2]: 3.02 ± 0.76

NQLQTKVAVLEQEIKDKDQLVLRT [SASS6]
protein stability index [1]: 4.65 ± 0.21
protein stability index [2]: 4.74 ± 0.27

NSDDSYTCECLEGFRLAEDGKRCR [MATN2]
protein stability index [1]: 3.54 ± 0.34
protein stability index [2]: 4.12 ± 0.67

NSIKNEKLEWAIDEDELRKSLSEL [PSD2]
protein stability index [1]: 4.81 ± 0.15
protein stability index [2]: 4.72 ± 0.079

NTELEVKIRDWYQRQAPGPARDYS [KRT17]
protein stability index [1]: 3.4 ± 0.35
protein stability index [2]: 3.48 ± 0.41

NVLGAQLDVEAAHSEILKYFQSVT [STX5]
protein stability index [1]: 2.76 ± 0.25
protein stability index [2]: 2.88 ± 0.33

NVNETDDWGRTALHYAAASDMDRN [ANKRD44]
protein stability index [1]: 4.69 ± 0.15
protein stability index [2]: 4.77 ± 0.33

NVYRKRRKYFADLAMNYKHGDPIP [TPH1]
protein stability index [1]: 2.75 ± 0.13
protein stability index [2]: 2.9 ± 0.26

NYCPQQTKITSAFKYINTVISCTI [EDNRA]
protein stability index [1]: 3.3 ± 0.65
protein stability index [2]: 2.77 ± 0.18

NYDKLSRSIRQYYKKGIIRKPDIS [SPDEF]
protein stability index [1]: 2.55 ± 0.21
protein stability index [2]: 2.74 ± 0.34

PADCKRKEEAGAPGGGAGMAAGFP [CEBPB]
protein stability index [1]: 5.12 ± 0.35
protein stability index [2]: 5.29 ± 0.098

PAEAEGAAQELENQMKERQGLFFD [TMEM120A]
protein stability index [1]: 5.33 ± 0.1
protein stability index [2]: 5.26 ± 0.34

PALHPAHAPQISYTGPSSSGRFAG [NCK2]
protein stability index [1]: 4.02 ± 0.15
protein stability index [2]: 4.15 ± 0.12

PAPCADGPAGGLADLSSGSSGEDD [PWWP2B]
protein stability index [1]: 5.51 ± 0.23
protein stability index [2]: 5.66 ± 0.15

PAPSRMQMPQGNPLLLSHTLQELL [SNX8]
protein stability index [1]: 3.08 ± 0.21
protein stability index [2]: 3.1 ± 0.22

PASDLEAALEAAGEGLNVIQQTTR [NANOGP8]
protein stability index [1]: 4.93 ± 0.17
protein stability index [2]: 4.95 ± 0.44

PAWGHCFYRLYQDLETHRLPCTSR [SCNN1D]
protein stability index [1]: 2.32 ± 0.12
protein stability index [2]: 2.62 ± 0.32

PDAPDHTSETSHSPLYADPYTPPA [PLEKHN1]
protein stability index [1]: 5.22 ± 0.3
protein stability index [2]: 5.01 ± 0.28

PDDLLTTLDDTCDLFAPLVQETNK [ATF4]
protein stability index [1]: 5.12 ± 0.23
protein stability index [2]: 5.14 ± 0.22

PDIMNLLIKSGAHFDATNLHKQTA [FEM1C]
protein stability index [1]: 2.39 ± 0.14
protein stability index [2]: 2.29 ± 0.26

PDNCEMFLNFNGMKLFLDCLKEFP [ZER1]
protein stability index [1]: 2.25 ± 0.18
protein stability index [2]: 2.19 ± 0.33

PDPEPPPVTPQVGEGRKSRKFSRL [SMG5]
protein stability index [1]: 3.98 ± 0.27
protein stability index [2]: 4.14 ± 0.45

PEDLQTDLAKLVDQQNPTLGETPE [ZNF449]
protein stability index [1]: 5.62 ± 0.23
protein stability index [2]: 5.73 ± 0.2

PESRSLPSSPLRLGSYKAQKTSRS [PPEF2]
protein stability index [1]: 5.29 ± 0.16
protein stability index [2]: 5.14 ± 0.24

PFDLEQQWQDLMSIMEMQAMEVNT [NFE2L1]
protein stability index [1]: 3.87 ± 0.17
protein stability index [2]: 4.03 ± 0.28

PFSSHTYSQASELPTDAVDCMSRE [FBXO34]
protein stability index [1]: 5.25 ± 0.29
protein stability index [2]: 5.01 ± 0.075

PGGGRLLLSTSLDAKDELEERLER [INTS3]
protein stability index [1]: 4.94 ± 0.3
protein stability index [2]: 4.84 ± 0.15

PGPGIGGDAHFDEDERWTNNFREY [MMP1]
protein stability index [1]: 4.14 ± 0.39
protein stability index [2]: 4.2 ± 0.35

PHLRSFCETCVGSWSIQMRQHHHQ
protein stability index [1]: 2.4 ± 0.25
protein stability index [2]: 2.34 ± 0.23

PHRMDRRLLALIYLAHASDVLENA [GOLPH3]
protein stability index [1]: 2.55 ± 0.27
protein stability index [2]: 2.34 ± 0.21

PIDVVEKYDPKTQEWSFLPSITRK [KLHL12]
protein stability index [1]: 4.56 ± 0.27
protein stability index [2]: 4.64 ± 0.33

PIVSSLADPLDTPPDSKEGIVVES [PDZK1]
protein stability index [1]: 5.37 ± 0.14
protein stability index [2]: 5.25 ± 0.48

PLDVVKVRLQSQRPSMASELMPSS [SLC25A39]
protein stability index [1]: 3.65 ± 0.34
protein stability index [2]: 3.59 ± 0.36

PLLPLDMQGNQILVFPSSSSSSSS [ZBTB22]
protein stability index [1]: 3.93 ± 0.24
protein stability index [2]: 4.1 ± 0.18

PNADLLFSDPSQSDPETKDFWLNM [FCHO1]
protein stability index [1]: 4.2 ± 0.21
protein stability index [2]: 4.19 ± 0.19

PNAGEQPGQVAGADFESEDEGEEF [EID1]
protein stability index [1]: 5.59 ± 0.28
protein stability index [2]: 5.46 ± 0.33

PPAADAPVTQIGFEAPPLQGQAAA [TRIM55]
protein stability index [1]: 5.07 ± 0.47
protein stability index [2]: 5.15 ± 0.28

PPDSKEGIVVESNHDSHMAKERAH [PDZK1]
protein stability index [1]: 5.55 ± 0.36
protein stability index [2]: 5.55 ± 0.23

PPKASEQETAKEEDGSVELESQVQ [C18orf25]
protein stability index [1]: 5.42 ± 0.17
protein stability index [2]: 5.67 ± 0.081

PPLRVIVKDALFCSCLSDILRFIY [RHOBTB3]
protein stability index [1]: 2.78 ± 0.16
protein stability index [2]: 2.84 ± 0.27

PPLSDPKQAKVVARRESGGRPIKP [BRD3]
protein stability index [1]: 5.21 ± 0.15
protein stability index [2]: 5.12 ± 0.18

PPNADLEQGFQEGVPNASVIMQVP [MFF]
protein stability index [1]: 4.83 ± 0.18
protein stability index [2]: 4.72 ± 0.33

PPPPPSYDPDYIQCPYCQRRFNEN [ZC2HC1A]
protein stability index [1]: 5.27 ± 0.34
protein stability index [2]: 5.44 ± 0.17

PPQGGCGGGGCDRYEPLPPSLPAA [KCNA3]
protein stability index [1]: 4.53 ± 0.16
protein stability index [2]: 4.7 ± 0.23

PPRRSRSRSHDRLPYQRRYRERRD [CLK3]
protein stability index [1]: 4.51 ± 0.29
protein stability index [2]: 4.72 ± 0.32
